The target in data set [1] is T1, CcTet-ΔN16 (CcTet-Δ16; CcTet) (Coprinopsis cinerea, UniProt A8P1J0).
T1 construct: gene CC1G_05589; N-terminal 16 residues deleted; His-SUMO1 tag removed by Ulp1; expressed in E. coli BL21(DE3) from pET-SUMO
T1 sequence (A8P1J0 17-430): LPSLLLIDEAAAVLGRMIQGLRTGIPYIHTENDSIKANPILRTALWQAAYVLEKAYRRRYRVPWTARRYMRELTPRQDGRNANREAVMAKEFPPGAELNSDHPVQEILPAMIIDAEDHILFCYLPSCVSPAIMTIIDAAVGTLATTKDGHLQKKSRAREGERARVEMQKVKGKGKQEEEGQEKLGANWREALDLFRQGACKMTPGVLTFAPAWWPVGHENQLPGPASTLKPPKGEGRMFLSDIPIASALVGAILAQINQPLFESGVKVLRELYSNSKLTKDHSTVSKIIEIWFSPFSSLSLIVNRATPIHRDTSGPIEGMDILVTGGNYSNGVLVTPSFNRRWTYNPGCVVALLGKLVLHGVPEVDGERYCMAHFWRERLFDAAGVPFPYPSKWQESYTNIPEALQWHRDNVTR
Briefly: X-ray crystallography, […] Å. It is filed as binding. Particulars: complex with Mn2+ and 12-bp 5mC-dsDNA; 2 mM NOG in the crystallization mix; 2-oxoglutarate site.

The target in another data set is T2, CcTet-ΔN16 (Coprinopsis cinerea, UniProt A8P1J0 17-430).
T2 sequence: T1 sequence (A8P1J0 17-430)
Description: X-ray crystallography (2.3 Å); Mn2+, N-oxalylglycine (NOG); MST: NT-495 labeled protein, room temperature, 5 min incubation, buffer not stated (protein gel-filtration buffer 20 mM HEPES pH 7.0, 100 mM NaCl, 1 mM DTT). Crystals: 2 mM NOG, 1 mM MnCl2, protein:DNA 1:1.2, 20 mM sodium formate, 10% PEG8000, 277 K. To be noted: protein: recombinant; tags: N-terminal His-Sumo1, removed by Ulp1; blunt; as printed, T of strand 2 (position 7) lies opposite 5mC6 (mismatch).

The target in a further data set is T3, CcTet-ΔN16 R92A (Coprinopsis cinerea, UniProt A8P1J0 17-430, R92A).
T3 sequence: T1 sequence (A8P1J0 17-430) with R76A
Briefly: MST; MST: NT-495 labeled protein, room temperature, 5 min incubation, buffer not stated (protein gel-filtration buffer 20 mM HEPES pH 7.0, 100 mM NaCl, 1 mM DTT). Crystals: 2 mM NOG, 1 mM MnCl2, protein:DNA 1:1.2, 20 mM sodium formate, 10% PEG8000, 277 K. Particulars: protein: recombinant; tags: N-terminal His-Sumo1, removed by Ulp1; blunt.

A further data set has as its target T4, CcTet-ΔN16 R96A (Coprinopsis cinerea, UniProt A8P1J0 17-430, R96A).
T4 sequence: T1 sequence (A8P1J0 17-430) with R80A
Described as above. To be noted: protein: recombinant; tags: N-terminal His-Sumo1, removed by Ulp1; blunt.

For another data set, the target named is T5, CcTet-ΔN16 H234A (Coprinopsis cinerea, UniProt A8P1J0 17-430, H234A).
T5 sequence: T1 sequence (A8P1J0 17-430) with H218A
The description is as above. To be noted: protein: recombinant; tags: N-terminal His-Sumo1, removed by Ulp1; blunt.

Where a chain is given by its changes, count along the chain named.

The record followed here is article PMC11040006, “Molecular basis of an atypical dsDNA 5mC/6mA bifunctional dioxygenase CcTet from Coprinopsis cinerea in catalyzing dsDNA 5mC demethylation” (Nucleic Acids Research, 2024).

Consider `O=C(O)CNC(=O)C(=O)O` [N-oxalylglycine], for which the “X-ray crystallography, 2.3 Å” value in data set [1] was “NOG was stabilized through hydrophilic and hydrophobic interactions with several nearby residues”.

B1: 12-bp 5mC-dsDNA (dsDNA)
DNA 1: CGATCCGCTACG
DNA 2: CGTAGCTGATCG
modifications: 5mC at position 6 of strand 1
For the molecule B1, the binding result with CcTet-ΔN16 was “binds”.

B2: 19-bp 5mC-dsDNA (dsDNA)
DNA 1: TCTGGAACGGAATTCTTCA
DNA 2: TGAAGAATTCCGTTCCAGA
modifications: 5mC at position 8 of strand 1
For B2, the binding result with CcTet-ΔN16 R92A, in the data set with CcTet-ΔN16 R96A and with CcTet-ΔN16 H234A was “no binding” each time.
